# Experiments:
# [1] = biological target: T1, His6-MBP-FXR2P P474S and P493N (Homo sapiens, UniProt P51116 1-673, P474S;P493N); experiment: fluorescence anisotropy; 75 mM K+, 5 mM Mg2+; FA: 20 mM Tris pH 7.5, 75 mM KCl, 5 mM MgCl2, 1 uM BSA, 1 mM DTT, 100 ng/uL tRNA, ~5 nM RNA, RT 1 h; EMSA: 50 mM Tris pH 7.5, 145 mM KCl, 5 mM MgCl2, 1 uM BSA; conditions: protein: recombinant; tags: N-terminal His6-MBP; label: 3' fluorescein; G-quadruplex forming
# His6-MBP-FMRP P451S [2] = biological target: T2, His6-MBP-FMRP P451S (Homo sapiens, UniProt Q06787 1-632, P451S); experiment: as above
# [3] = biological target: T1, His6-MBP-FXR2P P474S and P493N; experiment: EMSA; 250 nM protein; FA: 20 mM Tris pH 7.5, 75 mM KCl, 5 mM MgCl2, 1 uM BSA, 1 mM DTT, 100 ng/uL tRNA, ~5 nM RNA, RT 1 h; EMSA: 50 mM Tris pH 7.5, 145 mM KCl, 5 mM MgCl2, 1 uM BSA; conditions: protein: recombinant, tags: N-terminal His6-MBP
# His6-MBP-FMRP P451S [4] = biological target: T2, His6-MBP-FMRP P451S; experiment: as above
# T1 sequence (P51116 whole entry P474S/P493N): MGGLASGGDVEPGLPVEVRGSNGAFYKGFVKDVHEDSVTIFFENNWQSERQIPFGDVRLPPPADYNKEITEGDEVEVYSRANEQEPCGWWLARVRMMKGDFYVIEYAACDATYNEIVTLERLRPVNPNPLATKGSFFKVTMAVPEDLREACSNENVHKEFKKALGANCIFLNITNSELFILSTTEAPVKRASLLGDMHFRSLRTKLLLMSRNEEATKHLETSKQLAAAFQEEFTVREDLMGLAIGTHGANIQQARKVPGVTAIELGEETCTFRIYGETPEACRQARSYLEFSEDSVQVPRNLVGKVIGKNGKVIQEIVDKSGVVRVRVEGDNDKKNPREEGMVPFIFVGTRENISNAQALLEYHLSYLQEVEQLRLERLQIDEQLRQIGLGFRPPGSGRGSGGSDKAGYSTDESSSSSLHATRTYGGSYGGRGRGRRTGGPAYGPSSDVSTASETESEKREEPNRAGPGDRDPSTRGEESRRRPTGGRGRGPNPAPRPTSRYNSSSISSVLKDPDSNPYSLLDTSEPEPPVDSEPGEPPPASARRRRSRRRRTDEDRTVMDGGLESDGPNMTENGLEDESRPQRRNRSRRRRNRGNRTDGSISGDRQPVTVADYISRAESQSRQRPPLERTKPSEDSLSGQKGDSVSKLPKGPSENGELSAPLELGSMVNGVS
Binder,Kd [1] [nM],Kd (His6-MBP-FMRP P451S [2]) [nM],"binding result ([3]; label: 3' fluorescein (FTSC, periodate-oxidized 3' end), loop-loop pseudoknot (kissing complex))",binding result (His6-MBP-FMRP P451S [4]),"binding result ([3]; label: 3' fluorescein, single strand, no predicted G-quadruplex)"
GGGGGGGGGGGGGGGGGU (structured_RNA) [poly-G17U],3.1 ± 0.4,5.6,,,
ΔKC2 (structured_RNA) RNA: GGGCGAAUUCGGGAUUCCGACCAGAAGGGGCUAAGGAAUGGUGGGACGAGCUAGCGGCUGGUAUGUGCGUCU,,,binds,binds,
GCUAUCCAGAUUCUGAUU (ssRNA) [CR1],,,,no binding,no binding

# From publication PMC7522082, “A simple procedure for bacterial expression and purification of the fragile X protein family”
